# Source: the supplement of paper PMC10126150
# ± gives the standard deviation of the averaged measurements.
# System: ATP
# Test: switch fluorescence ratio, 500 uM ATP over buffer (Cy3 cluster intensity, sum of 5 cycles each) (fold (ratio)); higher = stronger signal-on switching upon ATP binding; sequences stand for … in TCGTCGGCAGCGTCAGATGTGTATAAGAGACAGTTTTTTTTTTTTTTTTTTTTTTTTT…TC
# Settings: aptamer strand: ATP DNA aptamer (quencher-CACCTGGGGGAGTATTGCGGAGGAAGG + anchor), 100 nM annealed; ATP concentration: 500 uM
# How it was run: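 The fluorescence ratio divides summed target-cycle Cy3 intensity by summed buffer-cycle Cy3 intensity for each cluster and is averaged per switch-domain sequence. Cy3-labelled switching-strand clusters on a modified Illumina MiSeq flow-cell were annealed to 100 nM quencher-labelled ATP aptamer, then imaged in selection buffer and again after 15 min with 500 uM ATP at 22 °C. Five such cycles were run, with NaOH stripping and re-annealing between them, and clusters outside 100-1000 RFU were excluded.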
# 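Also: ATP exposure 15 min at 22 °C before imaging.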
row,Sequence,switch fluorescence ratio
1,CTCGGATGTC,0.991 ± 0.022
2,CTCGGCTGCG,0.969 ± 0.084
3,CTCGGCTGTA,1.08 ± 0.019
4,CTCGGGAGAA,1.016 ± 0.0039
5,CTCGGGGGGT,1.01 ± 0.014
6,CTCGGGGTGC,1.036 ± 0.004
7,CTCGGGTGCG,0.973 ± 0.071
8,CTCGGTGGTG,0.959 ± 0.024
9,CTCGTACGAG,1.02 ± 0.021
10,CTCGTGAACT,1.048 ± 0.0022
11,CTCGTTATGT,0.9782 ± 0.0065
12,CTCTAAATGT,1.11 ± 0.016
13,CTCTAATCGG,1.018 ± 0.0097
14,CTCTAATGAA,0.992 ± 0.037
15,CTCTAGGGGC,1.128 ± 0.0065
16,CTCTAGGGGG,1.05 ± 0.028
17,CTCTATGTTA,1.02 ± 0.076
18,CTCTCACTGC,1.32 ± 0.05
19,CTCTCCTTGT,1.3 ± 0.38
20,CTCTGGACTA,1.11 ± 0.017
21,CTCTGGGATG,1.01 ± 0.064
22,CTCTGGGCTT,0.99826 ± 8.3e-05
23,CTCTGGGGGA,1.05 ± 0.068
24,CTCTGGTGGC,1.08 ± 0.054
25,CTCTGTGCTC,1.35 ± 0.083

row,Sequence,switch fluorescence ratio
1,CTCTGTTTAG,1.48 ± 0.53
2,CTCTGTTTGC,1.803 ± 0.0037
3,CTCTTACGTT,0.98 ± 0.023
4,CTCTTAGCTA,1.17 ± 0.019
5,CTCTTCTCTT,0.9657 ± 0.0088
6,CTCTTGGGGA,1.02 ± 0.0057
7,CTGAACGAAT,1.43 ± 0.034
8,CTGAACTCGT,1.03 ± 0.018
9,CTGAAGCTAG,2.27 ± 0.0024
10,CTGAAGGATC,1.05 ± 0.035
11,CTGAAGGGCG,0.979 ± 0.044
12,CTGAATACGG,1.115 ± 0.01
13,CTGAATGCGT,0.9844 ± 0.0084
14,CTGAATGGGT,0.998 ± 0.016
15,CTGACAAGGC,1.61 ± 0.27
16,CTGACAGCGG,1.06 ± 0.033
17,CTGAGCGATG,1.063 ± 0.0078
18,CTGAGGGGCC,0.951 ± 0.071
19,CTGAGGGGGA,1.09 ± 0.17
20,CTGAGGGGGT,0.991 ± 0.066
21,CTGAGTGCTT,0.991 ± 0.0067
22,CTGAGTGGC,0.9639 ± 0.0063
23,CTGAGTTGTT,0.989 ± 0.08
24,CTGATAAAGG,0.969 ± 0.048
25,CTGATATAAG,1.03 ± 0.017

row,Sequence,switch fluorescence ratio
1,CTGATATTGG,0.994 ± 0.015
2,CTGATGGGCT,0.972 ± 0.029
3,CTGATGGGG,0.986 ± 0.021
4,CTGATGTCGC,1.074 ± 0.0034
5,CTGATGTGTC,0.996 ± 0.055
6,CTGATTTAGC,1.05 ± 0.043
7,CTGCACATGG,1.7 ± 0.21
8,CTGCATCCGG,1.314 ± 0.011
9,CTGCATGACG,1.01 ± 0.047
10,CTGCCCGCCC,1.3 ± 0.12
11,CTGCGAGGGG,1 ± 0.016
12,CTGCGGGATT,1.02 ± 0.026
13,CTGCGGGGAG,1.03 ± 0.037
14,CTGCTAGTTT,0.983 ± 0.016
15,CTGCTGAGCA,1.03 ± 0.029
16,CTGCTTCCCG,1.15 ± 0.041
17,CTGGAAATTG,1.03 ± 0.036
18,CTGGAACGTC,0.989 ± 0.026
19,CTGGAAGGGT,1 ± 0.03
20,CTGGAATGTT,1.012 ± 0.01
21,CTGGACGGTG,1.032 ± 0.0042
22,CTGGACTGGT,0.989 ± 0.012
23,CTGGAGGGGA,1.04 ± 0.034
24,CTGGATAGCG,0.981 ± 0.044
25,CTGGCAAGGT,1.09 ± 0.031

row,Sequence,switch fluorescence ratio
1,CTGGCATTTT,0.9936 ± 0.0054
2,CTGGCGAGCG,1.03 ± 0.011
3,CTGGCGGTCC,1.028 ± 0.0066
4,CTGGGAATGG,1.12 ± 0.11
5,CTGGGAATTG,1.05 ± 0.043
6,CTGGGACTGA,1.02 ± 0.03
7,CTGGGAGGGG,1.01 ± 0.029
8,CTGGGAGGTG,1.03 ± 0.055
9,CTGGGAGTAC,1.04 ± 0.051
10,CTGGGGACGT,0.9821 ± 0.0081
11,CTGGGGAGAG,1.01 ± 0.026
12,CTGGGGAGCT,1.03 ± 0.05
13,CTGGGGAGTG,0.977 ± 0.029
14,CTGGGGATGG,0.995 ± 0.02
15,CTGGGGGACG,1.02 ± 0.016
16,CTGGGGGCGA,1.04 ± 0.012
17,CTGGGGGCGG,0.986 ± 0.018
18,CTGGGGGGAT,0.987 ± 0.021
19,CTGGGGGGCA,0.997 ± 0.017
20,CTGGGGGGCC,1.01 ± 0.038
21,CTGGGGGGCG,0.984 ± 0.066
22,CTGGGGGGTT,0.994 ± 0.019
23,CTGGGGGTCG,1 ± 0.025
24,CTGGGGTAAG,1.01 ± 0.042
25,CTGGGGTACT,1.08 ± 0.056

row,Sequence,switch fluorescence ratio
1,CTGGGGTGGG,1.01 ± 0.042
2,CTGGGGTTAC,1.77 ± 1
3,CTGGGGTTTC,0.997 ± 0.026
4,CTGGGTAACG,0.996 ± 0.034
5,CTGGGTAATT,1.04 ± 0.059
6,CTGGGTTAGT,1.03 ± 0.035
7,CTGGGTTCTC,0.989 ± 0.016
8,CTGGTAAATC,1.02 ± 0.026
9,CTGGTAATGG,1.04 ± 0.033
10,CTGGTAGGGG,0.983 ± 0.015
11,CTGGTCAGGG,0.988 ± 0.013
12,CTGGTCGGGC,0.982 ± 0.012
13,CTGGTCGGGG,1.017 ± 0.0096
14,CTGGTGACTG,0.986 ± 0.096
15,CTGGTGCATT,1.21 ± 0.11
16,CTGGTTATAG,0.989 ± 0.028
17,CTGGTTATCG,0.9998 ± 0.0032
18,CTGGTTCGGT,1.01 ± 0.037
19,CTGGTTCTTC,0.95 ± 0.022
20,CTGTAAGGTC,1.01 ± 0.019
21,CTGTAATCGT,0.9595 ± 0.0086
22,CTGTAATTAT,1 ± 0.011
23,CTGTAGTCGG,1.02 ± 0.03
24,CTGTATATCT,1.02 ± 0.022
25,CTGTATGAGT,0.9879 ± 0.0037

row,Sequence,switch fluorescence ratio
1,CTGTATGCGG,1.02 ± 0.089
2,CTGTCAAGAT,1.02 ± 0.024
3,CTGTCAGATG,1 ± 0.025
4,CTGTCCGGTA,1.056 ± 0.008
5,CTGTCGTAAA,1.07 ± 0.019
6,CTGTCGTTTC,0.975 ± 0.044
7,CTGTCTGGTG,1.025 ± 0.0087
8,CTGTCTTATG,1 ± 0.068
9,CTGTGCAGTC,1.26 ± 0.075
10,CTGTGGACCG,0.974 ± 0.017
11,CTGTGGCAGC,1.033 ± 0.0099
12,CTGTGGCTTT,1.016 ± 0.0096
13,CTGTGGGGCG,1.01 ± 0.045
14,CTGTGGGGGC,1.01 ± 0.016
15,CTGTGGTTTT,0.98 ± 0.034
16,CTGTGTGGAG,0.991 ± 0.013
17,CTGTGTGGGA,1.01 ± 0.013
18,CTGTGTTGGT,0.992 ± 0.022
19,CTGTTACTGA,0.999 ± 0.041
20,CTGTTACTGC,1 ± 0.031
21,CTGTTAGGGA,0.958 ± 0.03
22,CTGTTATCGC,1.01 ± 0.042
23,CTGTTATTGT,0.972 ± 0.024
24,CTGTTCGGCG,0.979 ± 0.042
25,CTGTTGGAAT,0.978 ± 0.025

row,Sequence,switch fluorescence ratio
1,CTGTTTAGGA,1.02 ± 0.053
2,CTGTTTAGTG,0.9822 ± 0.0061
3,CTGTTTCGGT,0.962 ± 0.021
4,CTGTTTGTGA,0.995 ± 0.011
5,CTTAAAGTTT,0.983 ± 0.041
6,CTTAACTTGA,1 ± 0.025
7,CTTAAGGGAA,0.9915 ± 0.0065
8,CTTAAGGGAT,1.0149 ± 0.00017
9,CTTAAGGGCC,1.02 ± 0.012
10,CTTAATAGAC,2.44 ± 1.9
11,CTTAATCGGC,1.09 ± 0.11
12,CTTACGGGAA,1.15 ± 0.1
13,CTTACGTGCC,1 ± 0.036
14,CTTACTGCAT,1.27 ± 0.068
15,CTTAGCTCTT,1.03 ± 0.022
16,CTTAGGAGGT,0.987 ± 0.025
17,CTTAGGGGGC,1.01 ± 0.051
18,CTTAGGTTGT,1.004 ± 0.0077
19,CTTAGTCAGC,1.06 ± 0.099
20,CTTATAAATT,0.999 ± 0.021
21,CTTATAGGGG,1 ± 0.035
22,CTTATAGTGG,1.06 ± 0.058
23,CTTATCATAT,1.09 ± 0.1
24,CTTATCGTTC,1.02 ± 0.013
25,CTTATGAAGC,1.14 ± 0.012

row,Sequence,switch fluorescence ratio
1,CTTATTAATC,1.01 ± 0.028
2,CTTATTCGCC,1.05 ± 0.099
3,CTTATTTGAT,0.975 ± 0.01
4,CTTCACATCG,1.03 ± 0.041
5,CTTCGCTCGA,1.35 ± 0.07
6,CTTCGGGGGT,1.02 ± 0.019
7,CTTCGTACGA,1.03 ± 0.043
8,CTTCTAGCTT,0.97 ± 0.058
9,CTTCTCAGTA,1.03 ± 0.048
10,CTTCTTAGTT,0.976 ± 0.019
11,CTTCTTTGGG,1 ± 0.024
12,CTTCTTTTCA,1.1 ± 0.064
13,CTTGAAGGTG,1.595 ± 0.015
14,CTTGACAGGT,1.023 ± 0.0058
15,CTTGACGCCG,1.09 ± 0.13
16,CTTGAGGGGT,0.971 ± 0.0099
17,CTTGATACTC,1.18 ± 0.032
18,CTTGATATTT,0.993 ± 0.015
19,CTTGATTATA,1.007 ± 0.0061
20,CTTGCCTGGG,0.96 ± 0.028
21,CTTGCGGTTC,1.11 ± 0.05
22,CTTGGATGTT,0.987 ± 0.024
23,CTTGGATTCC,1 ± 0.021
24,CTTGGGAGGC,1.02 ± 0.067
25,CTTGGGAGGG,0.992 ± 0.029
